Results as given in the DeepSol protein solubility set.

experiment: soluble on expression in E. coli; label from the status in PepcDB or PDB records

Row | Sequence | soluble on expression in E. coli
1 | MSSATASIKLSNGVEMPVIGLGTWQSSPAEVITAVKTAVKAGYRLIDTASVYQNEEAIGTAIKELLEEGVVKREELFITTKAWTHELAPGKLEGGLRESLKKLQLEYVDLYLAHMPAAFNDDMSEHIASPVEDVWRQFDAVYKAGLAKAVGVSNWNNDQISRALALGLTPVHNSQVELHLYFPQHDHVDFCKKHNISVTSYATLGSPGRVNFTLPTGQKLDWAPAPSDLQDQNVLALAEKTHKTPAQVLLRYALDRGCAILPKSIQENRIKENFEVFDFSLTEEDIAKLEESKNSQRLFLQDFMTGHPEDAFAAERK | soluble
2 | MSSCKSHVYVSAFLLCMLIPISQQVLNEHNQKLEWIVGKWRSEFSGKIFWPTVPTMTFGEELVINEAPIAKSANVQFLNFSARAWSHSTKDHFHDEWGFLTVDPVGNATLMTTGNNGFTTYETGTVSPNKLVLTLKDIGRISFSRDLPVEDLRRTFIRHDDRYMEQVIEMRTATHPKVGYLEHTRVVYTKLK | not soluble
3 | MSSDVAGVKKSSSSSSSTSSPFMFSMLLMFSRSISSTIKISANRILLCCTSSFSTTSGFFKIESNRLTSRSSSGIFSRTACNRSCGNCFSISAVLSFCVAPLCCKSTGRFSSAIYLLIFRSTR | soluble
4 | MSSEDRHLGSSCGSFIKTEPSSPSSGIDALSHHSPSGSSDASGGFGIALSTHANGLDSPPMFAGAGLGGNPCRKSYEDCTSGIMEDSAIKCEYMLNAIPKRLCLVCGDIASGYHYGVASCEACKAFFKRTIQGNIEYNCPATNECEITKRRRKSCQACRFMKCLKVGMLKEGVRLDRVRGGRQKYKRRLDSENSPYLNLPISPPAKKPLTKIVSNLLGVEQDKLYAMPPNDIPEGDIKALTTLCELADRELVFLINWAKHIPGFPSLTLGDQMSLLQSAWMEILILGIVYRSLPYDDKLAYAEDYIMDEEHSRLVGLLDLYRAILQLVRRYKKLKVEKEEFMILKALALANSDSMYIENLEAVQKLQDLLHEALQDYELSQRHEEPRRAGKLLWTLPLLRQTAAKAVQHFYSVKLQGKVPMHKLFLEMLEAKV | soluble
5 | MSSEEDEIAELSKDTPPEKKRKISESGASSSSFIPESTSEESLSLKSKKSGSRKRILTASSSTNSIAMKSSASWIQEKDTPINKSDEEKSIAESLLIANFSNEQLDRYTAFKRSRFNRRIIKNVITRTTGQIPSDPLALAVAGLTKMFIGDLVEEAVELRGALNEQDRPVQPYHITRAFDKLLAEGKLWPPYGAKY | not soluble
6 | MSSFDKNDERAQLMVPKSINEGKVVKLSQKTLVTKKIERQVVPEEKYIAGLDKIIEKDYFPHLKKMQAQKEYLEAVANKDINKIKELQMKFCSTGSVRTDRSFRTPITTRSTTEAPDVSSFDADTPGPSSASTSSAHDWMQSPMPFANEEGDNEALNRKRKKKKEETLTSYLNKYTSEDNASFEELAKVMREREDARRPWVYKAEEEHNKNLVTRQAIAAEADVQLALKHAVDADDNRPLNVDNWAYKAWNTVLFNPDGAALTPAEIADAARKQQTEINKRGTRFPDSGKLKPSDEAMTRAAVSHALANAGKVDFLGNEVTPANSFKLLETPNPNPDDMDSPLMTWGEIDGTPFRLDAPDVTEHSLPGAAPVFKIPEVPYREKIAQSMNDSIAAKYRDKRKVAMRAAEGAHRTPGFGSKRVSDKLAQLSPAAQKLATKKLGLKMLPAHKSPFASPKIMSNWSRPSSSKRSTTPGSAWSRGSTTPGSSWSQGAQTPGTPGIESMIRRKGDNVGPSTSAGAADRANAGDFF | not soluble
7 | MSSFFPLPPAIGKSTGCGVRDESQSLVVWAIEDYSIPESIDPDMINLKIETAIVKKFNLRSSAVVTTWIFGSAENAWLAKSKVKLWESEFRVSLHKGGDKRARLNMMLADVIYYVWNWKAPTNLAVLTENKEEMEQDPKFFRFRQALENKGFFVAVEHPETLINQETAVEDPPDDSPIPYYPSDNPQKLAFWYKEDSEAYRAKYKQVRGTKRTI | soluble
8 | MSSFHATTIFAVQHKGRSAMSGDGQVTFGQAVVMKHTARKVRKLFNGKVLAGFAGSVADAFTLFEKFEAKLEEYNGNLKRAAVELAKEWRSDKVLRKLEAMLIVMNQDTLLLVSGTGEVIEPDDGILAIGSGGNYALAAGRALKKHAGESMSASEIARAALETAGEICVYTNDQIILEELE | soluble
9 | MSSGFAVSARSLALMATLAFAAPALAQQYGGEVDPEIRIQQLEDRLRTLTGQNEELQHRNRRLEEQVRQLQSGAGAPGAQQPAPNQATTPPAAPQQPYSQPAQQPAYGQQQPGYGQPQAPMVQPQPAAPQGGGRRGDAFDPSRDPNAPGVPRALGGGQLPMEQSGGMPAGRAAGAPMDLSNGNGGYVQGGYPQGGAPSAAKQPPAATAGGALTTQPPSQTPRDEFDLGIGYMQRRDYALAEETMRNFAQKYPDNPLTADAQYWLGESFFQRQMYRDAAEAFLAVTSKHEKSGKAPDALLRLGQSLSALKEKEAACAALGEIGRKYPQASSSVKKAVDREQKKLKC | not soluble
10 | MSSLTKQFVITQSVKNVSSIADGGEHVTPSEIHYGTEWYMRIKRDNGFMSFGLYCPMTGKTTNWSIVADIRVELMPLTGMWKSVECECKIAKSPSLISEVLRSTIMPWGRMMTNYVVDDALMIEVFVTIKSMTGFERPYNLRSFDESMEEFSDVVLLVGEKKFYVLRKYLAAQSKYFKALLLGSFEEGKSSEVTLTSIDPNDFQFFLEVLYGDSAINDLTVEGILHIADMYDTPMVVRKCEEFLIKGTKLPAKKKLQMAFRYKMENFMVLFFGNIQRKVFNFFRETTTLN | not soluble
11 | MSSLWLDQARGSEPACPALQGATRADVCIVGGGYTGLWTALQLREQSPGLDIVLLEAQECGAGASGRNGGFMLSWAAKFETLLKVCGTDEALRLLGESERIAADVAGYLKRHGVDAQLRQDGWLWTASNAAQVDSWMPCIELLARHGQQAFVALPADEVRRLSGSAAHLAGVLSRSSATVHPGMYVRGLRRIALAKGIRIYEHTPMRSLRARPQPTVATARGEVRAAKVVLAMNAWSTRFRELNKGVVVVGSDLVATAPHPEALEKIGLTSGVAISDSRLFTNYYRNTCAGEMVFGRGGGDFAFNGAVGRLYEGPSRFAREVAAILHRFYPALAPLGIVRSWSGPIDRSMDGLPCFGHLGGHPDIVYGYGYSGNGVGPTYLGGKFLASMVLENDDAWRHSALARGLRGRFPPEPFRYVGSRVVKAALVRKEAAEDQGQAPARLDTMLAGLAPGGLVPVARKEKALEHHHHHH | not soluble
12 | MSSMTTTDNKAFLNELARLVGSSHLLTDPAKTARYRKGFRSGQGDALAVVFPGSLLELWRVLKACVTADKIILMQAANTGLTEGSTPNGNDYDRDVVIISTLRLDKLHVLGKGEQVLAYPGTTLYSLEKALKPLGREPHSVIGSSCIGASVIGGICNNSGGSLVQRGPAYTEMSLFARINEDGKLTLVNHLGIDLGETPEQILSKLDDDRIKDDDVRHDGRHAHDYDYVHRVRDIEADTPARYNADPDRLFESSGCAGKLAVFAVRLDTFEAEKNQQVFYIGTNQPEVLTEIRRHILANFENLPVAGEYMHRDIYDIAEKYGKDTFLMIDKLGTDKMPFFFNLKGRTDAMLEKVKFFRPHFTDRAMQKFGHLFPSHLPPRMKNWRDKYEHHLLLKMAGDGVGEAKSWLVDYFKQAEGDFFVCTPEEGSKAFLHRFAAAGAAIRYQAVHSDEVEDILALDIALRRNDTEWYEHLPPEIDSQLVHKLYYGHFMCYVFHQDYIVKKGVDVHALKEQMLELLQQRGAQYPAEHNVGHLYKAPETLQKFYRENDPTNSMNPGIGKTSKRKNWQEVE | soluble
13 | MSSNSPNSSNPAATDAPKKTSVEPGSEANNWHITEADEKGFKLTDMIKKLLKPVFSKAIMFDEKEIHVLLTRVFKYYTSPPNKKTAPSASASATTSMSPPKPAANALLELQAPINICGDTHGQYNDLLRIFNACGAATKTQYLFLGDYVDRGGHSLEVIMLLFSLKLAMPRKMHLLRGNHELKAINKNYGFHAELKKRFQREEVYESVYNHFNQVFSYMPLCAIVSKRILCMHGGISPHLKSLDDIRAIPLPLETAKTHPLACDLLWADPEKDAKGFEPNKIRAISNVFGKKEVDDLCKRLDIDLIVRAHQVVEYGYAFFADRRLITVFSASRYQIELCNYAAVVVVNKMLELSFVQLKPEDFEVRRDECEENAKDQTTSNVPH | not soluble
14 | MSSNTTEHGEHFNESIVNEVILEDMKKNRIDHMKYLPGMETMEESDVMEQVITAMNAYDYDKYTEKDVRRALEHDNRTVEDFQALLSPAALPLLEEIAQAARVETRKHFGNSVYMFTPIYIANYCENYCIYCGFNCHNKIRRAQLNAEEIDKEMAAIAKTGLQEILILTGESRIKSDVKYIGEACKIARKYFKVIGLEVYPMNSDEYHYLHECGADYVTVFQETYNSDKYETLHLAGHKRIFPYRLNAQERALKGGMRGVGFAALLGLDDFRKDAFATGYHAWLLQRKYPHAEIAFSCPRLRPIINNDRINPMDVHEPQLLQVVCAYRLFMPFASITVSTRECERVRDNLVNIAATKISAGVSTGIGSHVEDIEDKGDDQFEISDGRSVDEVYQALLNHDLQPVMNDYVYL | not soluble
15 | MSSPERDEGTPVPDSRGHCDADTVSGTPDRRPLLGEEKAVTGEGRAGIVGSPAPRDVEGLVPQIRVAAARQGESPPSVRGPAAAVFVTPKYVEKAQETRGAESQARDVKTEPGTVAAAAEKSEVATPGSEEVMEVEQKPAGEEMEMLEASGGVREAPEEAGPWHLGIDLRRNPLEAIQLELDTVNAQADRAFQHLEQKFGRMRRHYLERRNYIIQNIPGFWMTAFRNHPQLSAMIRGRDAEMLRYVTSLEVKELRHPKTGCKFKFFFRRNPYFRNKLIVKEYEVRSSGRVVSLSTPIIWRRGHEPQSFIRRNQDLICSFFTWFSDHSLPESDRIAEIIKEDLWPNPLQYYLCREGIRRPRRRPIREPVEIPRPFGFQSG | not soluble
16 | MSSRPPFGIVKPSKPTGNPSSGSSDLDSTAEPSPHERRMDSQRASSGSDVHGHPSLGSQSHNLTSAQSEGRNAHKDLHERHVHPSQGYQRHGSKAPAHGHPSSQGARRSQHELSNFPKLLANLMQDTKATASASCASNQDTLQPTASTMSDGEPEEDKVKLCGNRLEVGVTDNLAGTQRRKEQQQLQGAQAKNDIIYTLSTDNSILDIDHQPKREIAFTHSLLNISKIVNRMIPIRCSMFPGKSWKDPNNLKRPSIAKVHRTNHANELRTARFKANEKCYLLSVCQLISLKNPTFQGLSDSLNSPGDKKVAAEKHTCEDRTRRPTFPLDAFCSTPNEQYETMLLIAKSRTLSARMNVKMLHFPLGLLALEFDGIDSDMPNPDFHDNVLGYRDPHTTTPDSSSDHAAANLPPGRTRDYIPRKAKAPYINYVHSLSVMVEPLPSPPECCHLGSAEPVRPNFADIGAWSGSPTNPQSPSA | not soluble
17 | MSSRVPILKVDDYWVVAIEETLHDQSVIQFKEELLHNITGVAGKGLVIDISALEVVDSFVTRVLIEISRLAELLGLPFVLTGIKPAVAITLTEMGLDLRGMATALNLQKGLDKLKNLARMEQR | soluble
18 | MSSTIPALPGPEPGPGPGPAGPVSLTERRKAETRMEIARAAARLFVGQGLRATRAEDIARAAGVAPRTFYRYFATKEEAVAPLYALGAERWVRAVREAPAELSPPEALERAVRHTLTPGAGVSAPSWEWARTLIRLAESSPALRKVWAEVCHSTERGLVQALAARMSGGDDNVAVRLAASPRLHFAAAVAGASVRVAAEHWASSSPQGARSPLEQALLNLEVLRGFAWEAGPAEEG | not soluble
19 | MSSTLPVINLMGPTASGKTALACELYERGHFELISVDSALIYKDMDIGTAKPTKEELALYPHHLIDIITPLEVYSAAQFVEDATQLIDQIHMKGKTPILVGGTMLYFKSLLEGLSTNLPSADAEVRAAIEKQAEQEGWQSVYDELARVDPVAGARFKVSDRQRIIRAIEVYRLTGQPITKLQAEQPKNVPYRYTFHNYALLPDRIELHKRIEQRLFKMWSIGFLNEVESLIKKYDLNDNLPSMRSVGYRQALDFLLKSDMSHNNRREMEDKALFATRQLAKRQYTWLRSLQETHYFKTYLTIKQAQEDLRNSYGLEHHHHHH | soluble
